Assay [1] has as its target FcγRIIb on the cell surface (UniProt P31994). The assay can be described thus: binding to cell-surface FcγRIIb (cells and method not stated).
The target in assay [2] is recombinant human FcγRIIb (human) (UniProt P31994). The assay can be described thus: SPR (Biacore), global Langmuir fit. Background: In SPR one partner is held on a chip, and binding of the other changes the refractive index at the surface.

pEC50, pKd: −log10 of the molar value.

One may read the pEC50 as the negative decadic logarithm of the EC50, by convention in mol/L. As usually defined, the pKd is the negative decadic logarithm of the Kd, by convention in mol/L. In assay [1], S239D/S267E (antibody) showed a pEC50 of 8.70 and a Fold (cell surface EC50 against native IgG1) of 220 fold. Also, in assay [2], the Fold (KD(Native IgG1)/KD(variant)) is 150 fold and the pKd was 7.92.

(Values after patent publication WO2011097527A2.)
